B1: Double-stranded RNA-specific adenosine deaminase, residues 296 to 358; numbered along this chain, P55265 (parent)
chain: MAEIKEKICDYLFNVSDSSALNLAKNIGLTKARDINAVLIDMERQGDVYRQGTTPPIWHLTDK
B2: Gamma-crystallin D, residues 90 to 170; numbered along this chain, P07320 (parent)
chain: IRLYEREDYRGQMIEFTEDCSCLQDRFRFNEIHSLNVLEGSWVLYELSNYRGRQYLLMPGDYRRYQDWGATNARVGSLRRV

Variants of: B1
Test: abundance fitness (aPCA) (normalised: wild type 0, dead -1); higher = more abundant; growth selection in yeast, the domain comes from the species named
Conditions: Homo sapiens

Abundance fitness: each site, then its substitutions
M1: W 0.017 | C -0.545 | E 0.235 | Y -0.327 | L -0.29 | A -0.418 | R 0.151 | S -0.034 | F 0.108 | D -0.359 | K 0.181 | G -0.263 | Q 0.435
E3: G -0.18 | H -0.285 | A -0.369 | I -0.457 | F -0.561
A2: Q 0.023 | W -0.18 | K 0.168 | E 0.3 | P -0.335 | M 0.045 | V -0.247 | N 0.051 | D 0.207 | L -0.096 | C -0.393 | F -0.471 | H -0.151 | T -0.152 | S -0.024 | R 0.004

Variants of: B2
Test: as above
Conditions: Homo sapiens

Abundance fitness of substitutions, site by site:
R63: T 0.039 | S -0.037 | Q 0.072 | A 0.024 | N -0.079 | I 0.113 | M 0.132 | P -0.012 | W 0.031 | K 0.061 | F 0.004 | D 0.129 | E 0.09 | C 0.097 | L 0.088
Q66: P -0.016 | G 0.038 | V -0.038 | R -0.06 | E -0.022 | C -0.067 | D -0.14 | M -0.048 | K 0.269 | N -0.074 | F -0.004 | T -0.073 | S 0.018 | H 0.108 | W 0.018
L78: W -0.011 | Q -0.908 | G -0.565 | M 0.126 | C 0.157 | E -0.873 | R -0.893 | P -0.708 | I 0.061 | H -0.426 | S -0.38 | K -1.12
G69: N -0.011 | P -0.164 | T 0.016 | S -0.019 | A 0.038 | Y 0.037 | L 0.101 | C 0.084 | W 0.045 | V 0.105 | Q 0.082 | I -0.057 | D -0.105 | E 0.193 | F -0.008 | R 0.141 | M 0.24
D61: F -0.094 | T -0.024 | L -0.093 | K -0.096 | Q -0.038 | G 0.004 | V -0.07 | S -0.027 | N -0.016 | M -0.008 | R -0.109 | I -0.332 | W -0.237 | E 0.043 | H -0.25
V75: C -0.065 | R -0.863 | Q -0.145 | A -0.017 | M -0.024 | F -0.037 | Y -0.001 | P -0.011 | T -0.206 | N -0.205 | W -0.131 | H -0.742 | K -0.683 | D -0.988 | I -0.201 | E -1.04 | G -0.024
R74: W -0.029 | V 0.028 | L -0.002 | S -0.011 | G -0.011 | N 0.098 | Q -0.02 | M -0.224 | F -0.023 | A -0.015 | K -0.134 | D 0.018 | P 0.005 | E 0.132 | Y -0.092 | C 0.012
D67: F -0.062 | H -0.034 | A -0.101 | V -0.043 | C -0.148 | Y -0.125 | W -0.064 | R -0.208 | E 0.049 | P -0.19 | M 0.047 | L -0.084 | Q -0.08 | S -0.005 | I -0.155
G60: Y -0.176
W68: L 0.164 | I 0.116 | N -0.117 | P -0.067 | R 0.093 | M 0.15 | A 0.043 | D 0.062 | F 0.194 | V 0.087
